Measurements: patent US20250339531A1, “DUX4 POLYPEPTIDES AND NUCLEIC ACIDS FOR TREATING INFLAMMATORY AND AUTOIMMUNE CONDITIONS” (Fred Hutchinson Cancer Center, priority 2021, published 2025)

How the values were obtained:
[1] = target: Eukaryotic initiation factor 4A-II (Homo sapiens) (UniProt Q14240); assay: anti-FLAG co-IP LC-MS, exp 4, +Dox +IFNG
[2] = target: Guanine nucleotide-binding protein G(i) subunit alpha-2 (Homo sapiens) (UniProt P04899); assay: anti-FLAG co-IP LC-MS, exp 4, +Dox +IFNG
[3] = target: Importin subunit beta-1 (Homo sapiens) (UniProt Q14974); assay: anti-FLAG co-IP LC-MS, exp 4, +Dox +IFNG
[4] = target: 60S acidic ribosomal protein P0 (Homo sapiens) (UniProt P05388); assay: anti-FLAG co-IP LC-MS, exp 4, +Dox +IFNG
Vimentin (Homo sapiens) = Vimentin (Homo sapiens) (UniProt P08670); assay: anti-FLAG co-IP LC-MS, exp 4, +Dox +IFNG
[5] = target: AP-2 complex subunit mu (Homo sapiens) (UniProt E9PFW3); assay: anti-FLAG co-IP LC-MS, exp 4, +Dox +IFNG
[6] = target: Transportin-1 (Homo sapiens) (UniProt Q92973); assay: anti-FLAG co-IP LC-MS, exp 4, +Dox +IFNG
Transportin-1 (Homo sapiens), sequence (Q92973 whole entry): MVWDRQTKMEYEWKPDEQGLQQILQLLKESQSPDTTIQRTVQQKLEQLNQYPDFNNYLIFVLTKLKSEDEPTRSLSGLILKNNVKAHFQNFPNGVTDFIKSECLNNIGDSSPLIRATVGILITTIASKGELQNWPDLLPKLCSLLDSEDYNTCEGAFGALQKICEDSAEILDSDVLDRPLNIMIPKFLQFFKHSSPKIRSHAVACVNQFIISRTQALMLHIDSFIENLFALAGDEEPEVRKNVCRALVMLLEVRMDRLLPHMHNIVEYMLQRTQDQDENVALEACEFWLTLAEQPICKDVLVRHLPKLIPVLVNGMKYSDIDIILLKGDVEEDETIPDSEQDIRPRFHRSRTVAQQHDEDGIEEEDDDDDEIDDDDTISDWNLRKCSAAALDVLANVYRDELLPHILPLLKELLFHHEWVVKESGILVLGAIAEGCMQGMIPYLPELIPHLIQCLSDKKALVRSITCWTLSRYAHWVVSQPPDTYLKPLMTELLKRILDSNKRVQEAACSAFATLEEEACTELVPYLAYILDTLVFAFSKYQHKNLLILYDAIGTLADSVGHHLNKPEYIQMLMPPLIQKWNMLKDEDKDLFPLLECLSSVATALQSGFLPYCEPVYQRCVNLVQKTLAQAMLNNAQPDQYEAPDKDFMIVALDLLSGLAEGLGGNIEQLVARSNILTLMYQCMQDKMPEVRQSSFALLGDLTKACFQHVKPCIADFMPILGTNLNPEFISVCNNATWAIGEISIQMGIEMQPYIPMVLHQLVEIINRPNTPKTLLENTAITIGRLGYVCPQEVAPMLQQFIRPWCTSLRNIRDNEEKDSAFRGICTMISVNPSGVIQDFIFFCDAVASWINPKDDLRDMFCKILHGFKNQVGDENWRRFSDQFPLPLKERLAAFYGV

[7] = target: Protein S100-A6 (Homo sapiens) (UniProt P06703); assay: anti-FLAG co-IP LC-MS, exp 4, +Dox +IFNG
[8] = target: 60S ribosomal protein L11 (Homo sapiens) (UniProt P62913); assay: anti-FLAG co-IP LC-MS, exp 4, +Dox +IFNG
[9] = target: Importin subunit alpha-5 (Homo sapiens) (UniProt P52294); assay: anti-FLAG co-IP LC-MS, exp 4, +Dox +IFNG
[10] = target: Prelamin-A/C (Homo sapiens) (UniProt P02545); assay: anti-FLAG co-IP LC-MS, exp 4, +Dox +IFNG
[11] = target: Myosin regulatory light chain 12A (Homo sapiens) (UniProt J3QRS3); assay: anti-FLAG co-IP LC-MS, exp 4, +Dox +IFNG
[12] = target: 40S ribosomal protein S6 (Homo sapiens) (UniProt P62753); assay: anti-FLAG co-IP LC-MS, exp 4, +Dox +IFNG
[13] = target: Coronin-1C (Homo sapiens) (UniProt Q9ULV4); assay: anti-FLAG co-IP LC-MS, exp 4, +Dox +IFNG
[14] = target: Serine/threonine-protein phosphatase 2A 65 kDa regulatory subunit A alpha isoform (Homo sapiens) (UniProt P30153); assay: anti-FLAG co-IP LC-MS, exp 4, +Dox +IFNG
Serine/threonine-protein phosphatase 2A 65 kDa regulatory subunit A alpha isoform (Homo sapiens), sequence (P30153 2-589 limits assumed): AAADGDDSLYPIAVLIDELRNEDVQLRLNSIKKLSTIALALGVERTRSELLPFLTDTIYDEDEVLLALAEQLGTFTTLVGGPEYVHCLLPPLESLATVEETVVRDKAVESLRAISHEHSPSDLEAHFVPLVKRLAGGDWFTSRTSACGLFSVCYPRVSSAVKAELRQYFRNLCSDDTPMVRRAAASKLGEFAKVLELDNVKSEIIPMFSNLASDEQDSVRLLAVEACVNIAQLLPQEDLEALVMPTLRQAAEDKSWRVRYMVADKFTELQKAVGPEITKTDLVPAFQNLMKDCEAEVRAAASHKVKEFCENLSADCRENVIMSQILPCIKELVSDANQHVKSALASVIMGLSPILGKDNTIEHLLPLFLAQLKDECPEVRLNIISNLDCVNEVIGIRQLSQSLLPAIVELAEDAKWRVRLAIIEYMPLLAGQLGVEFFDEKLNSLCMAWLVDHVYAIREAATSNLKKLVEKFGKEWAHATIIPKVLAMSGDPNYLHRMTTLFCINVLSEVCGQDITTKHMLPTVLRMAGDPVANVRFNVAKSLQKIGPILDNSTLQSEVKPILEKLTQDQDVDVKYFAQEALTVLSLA

[15] = target: Dynactin subunit 1 (Homo sapiens) (UniProt Q14203); assay: anti-FLAG co-IP LC-MS, exp 4, +Dox +IFNG
[16] = target: Src substrate cortactin (Homo sapiens) (UniProt Q14247); assay: anti-FLAG co-IP LC-MS, exp 4, +Dox +IFNG
[17] = target: Alpha-actinin-1 (Homo sapiens) (UniProt P12814); assay: anti-FLAG co-IP LC-MS, exp 4, +Dox +IFNG
[18] = target: Tubulin beta-4B chain (Homo sapiens) (UniProt P68371); assay: anti-FLAG co-IP LC-MS, exp 4, +Dox +IFNG
Nestin (Homo sapiens) = Nestin (Homo sapiens) (UniProt P48681); assay: anti-FLAG co-IP LC-MS, exp 4, +Dox +IFNG
Nestin (Homo sapiens), sequence (P48681 whole entry): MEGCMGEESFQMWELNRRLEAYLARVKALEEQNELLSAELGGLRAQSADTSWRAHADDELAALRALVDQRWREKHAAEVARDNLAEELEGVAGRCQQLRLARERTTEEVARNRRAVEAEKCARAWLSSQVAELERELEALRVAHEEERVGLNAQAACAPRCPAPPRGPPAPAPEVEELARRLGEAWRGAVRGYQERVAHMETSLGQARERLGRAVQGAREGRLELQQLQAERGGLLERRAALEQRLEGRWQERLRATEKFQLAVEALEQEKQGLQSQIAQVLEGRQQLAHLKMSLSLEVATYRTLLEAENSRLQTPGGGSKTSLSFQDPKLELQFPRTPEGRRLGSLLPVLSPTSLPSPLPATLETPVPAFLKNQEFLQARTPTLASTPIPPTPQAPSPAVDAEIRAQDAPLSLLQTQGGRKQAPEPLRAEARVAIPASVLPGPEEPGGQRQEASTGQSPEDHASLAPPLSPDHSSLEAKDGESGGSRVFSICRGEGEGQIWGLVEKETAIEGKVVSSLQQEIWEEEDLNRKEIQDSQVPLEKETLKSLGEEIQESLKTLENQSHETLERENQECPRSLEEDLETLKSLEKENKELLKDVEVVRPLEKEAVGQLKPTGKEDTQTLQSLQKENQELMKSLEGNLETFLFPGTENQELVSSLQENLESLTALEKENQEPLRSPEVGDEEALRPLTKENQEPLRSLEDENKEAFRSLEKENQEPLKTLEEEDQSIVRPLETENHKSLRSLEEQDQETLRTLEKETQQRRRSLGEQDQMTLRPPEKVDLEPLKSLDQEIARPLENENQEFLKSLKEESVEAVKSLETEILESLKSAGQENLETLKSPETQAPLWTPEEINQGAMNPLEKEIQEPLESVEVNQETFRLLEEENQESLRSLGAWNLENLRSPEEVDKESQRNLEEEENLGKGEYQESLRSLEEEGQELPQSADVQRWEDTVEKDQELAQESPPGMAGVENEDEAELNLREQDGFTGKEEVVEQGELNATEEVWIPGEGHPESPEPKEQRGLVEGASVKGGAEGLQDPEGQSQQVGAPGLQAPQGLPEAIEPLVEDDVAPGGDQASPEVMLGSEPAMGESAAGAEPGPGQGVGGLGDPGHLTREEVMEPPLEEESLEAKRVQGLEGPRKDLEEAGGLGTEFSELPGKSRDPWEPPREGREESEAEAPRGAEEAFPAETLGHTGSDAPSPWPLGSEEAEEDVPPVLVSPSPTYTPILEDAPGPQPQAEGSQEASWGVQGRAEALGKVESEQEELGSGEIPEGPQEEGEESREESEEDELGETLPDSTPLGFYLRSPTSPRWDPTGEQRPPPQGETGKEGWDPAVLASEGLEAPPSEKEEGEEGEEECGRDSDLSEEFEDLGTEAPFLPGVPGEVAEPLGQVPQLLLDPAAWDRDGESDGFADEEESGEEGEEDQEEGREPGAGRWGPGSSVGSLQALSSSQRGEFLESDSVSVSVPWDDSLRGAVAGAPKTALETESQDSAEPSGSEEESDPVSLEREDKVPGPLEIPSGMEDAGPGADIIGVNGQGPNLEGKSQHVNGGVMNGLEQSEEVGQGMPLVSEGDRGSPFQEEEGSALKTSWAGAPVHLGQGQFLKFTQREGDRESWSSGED

[19] = target: 60 kDa heat shock protein, mitochondrial (Homo sapiens) (UniProt P10809); assay: anti-FLAG co-IP LC-MS, exp 4, +Dox +IFNG
Filamin-C (Homo sapiens) = Filamin-C (Homo sapiens) (UniProt Q14315); assay: anti-FLAG co-IP LC-MS, exp 4, +Dox +IFNG
[20] = target: Capping protein (Actin filament) muscle Z-line, beta, isoform CRA_d (Homo sapiens) (UniProt B1AK88); assay: anti-FLAG co-IP LC-MS, exp 4, +Dox +IFNG
Capping protein (Actin filament) muscle Z-line, beta, isoform CRA_d (Homo sapiens), sequence (B1AK88 entry or part of it limits assumed, form in doubt): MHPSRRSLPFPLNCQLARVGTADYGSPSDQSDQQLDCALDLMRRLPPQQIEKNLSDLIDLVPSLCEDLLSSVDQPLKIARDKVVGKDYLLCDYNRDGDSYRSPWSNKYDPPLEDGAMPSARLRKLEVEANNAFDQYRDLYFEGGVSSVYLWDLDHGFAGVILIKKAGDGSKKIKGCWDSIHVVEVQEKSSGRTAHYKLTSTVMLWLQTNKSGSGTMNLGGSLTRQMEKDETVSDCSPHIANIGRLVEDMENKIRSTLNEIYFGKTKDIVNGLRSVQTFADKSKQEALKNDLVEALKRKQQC

[21] = target: Tubulin beta-2A chain (Homo sapiens) (UniProt Q13885); assay: anti-FLAG co-IP LC-MS, exp 4, +Dox +IFNG
[22] = target: Neuroblast differentiation-associated protein AHNAK (Homo sapiens) (UniProt Q09666); assay: anti-FLAG co-IP LC-MS, exp 4, +Dox +IFNG
[23] = target: Spectrin beta chain (Homo sapiens) (UniProt Q01082); assay: anti-FLAG co-IP LC-MS, exp 4, +Dox +IFNG
[24] = target: Reticulon-4 (Homo sapiens) (UniProt Q9NQC3); assay: anti-FLAG co-IP LC-MS, exp 4, +Dox +IFNG
Plectin (Homo sapiens) = Plectin (Homo sapiens) (UniProt Q15149); assay: anti-FLAG co-IP LC-MS, exp 4, +Dox +IFNG
[25] = target: Endoplasmic reticulum chaperone BiP (Homo sapiens) (UniProt P11021); assay: anti-FLAG co-IP LC-MS, exp 4, +Dox +IFNG
[26] = target: Heterogeneous nuclear ribonucleoprotein H (Homo sapiens) (UniProt G8JLB6); assay: anti-FLAG co-IP LC-MS, exp 4, +Dox +IFNG
[27] = target: Dolichyl-diphosphooligosaccharide--protein glycosyltransferase subunit 1 (Homo sapiens) (UniProt P04843); assay: anti-FLAG co-IP LC-MS, exp 4, +Dox +IFNG
Dolichyl-diphosphooligosaccharide--protein glycosyltransferase subunit 1 (Homo sapiens), sequence (P04843 24-607 limits assumed): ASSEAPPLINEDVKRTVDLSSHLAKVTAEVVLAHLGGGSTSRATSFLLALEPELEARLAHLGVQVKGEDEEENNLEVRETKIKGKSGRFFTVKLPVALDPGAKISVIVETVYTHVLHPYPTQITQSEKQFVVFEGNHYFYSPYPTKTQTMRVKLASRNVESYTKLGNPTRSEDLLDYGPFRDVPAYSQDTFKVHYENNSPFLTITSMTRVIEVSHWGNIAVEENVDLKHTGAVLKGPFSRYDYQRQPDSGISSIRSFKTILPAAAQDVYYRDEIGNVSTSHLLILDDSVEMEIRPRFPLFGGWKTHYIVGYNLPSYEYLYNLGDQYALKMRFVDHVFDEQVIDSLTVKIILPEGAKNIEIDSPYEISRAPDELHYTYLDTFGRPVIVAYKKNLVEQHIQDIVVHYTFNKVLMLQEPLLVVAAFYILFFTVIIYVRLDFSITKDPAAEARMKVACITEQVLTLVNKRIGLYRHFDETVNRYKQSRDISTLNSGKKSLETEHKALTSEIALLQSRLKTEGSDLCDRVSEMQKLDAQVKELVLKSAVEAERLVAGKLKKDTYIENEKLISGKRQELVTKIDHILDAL

[28] = target: Heat shock 70 kDa protein 1B (Homo sapiens) (UniProt P0DMV9); assay: anti-FLAG co-IP LC-MS, exp 4, +Dox +IFNG
Heat shock 70 kDa protein 1B (Homo sapiens), sequence (P0DMV9 2-641 limits assumed): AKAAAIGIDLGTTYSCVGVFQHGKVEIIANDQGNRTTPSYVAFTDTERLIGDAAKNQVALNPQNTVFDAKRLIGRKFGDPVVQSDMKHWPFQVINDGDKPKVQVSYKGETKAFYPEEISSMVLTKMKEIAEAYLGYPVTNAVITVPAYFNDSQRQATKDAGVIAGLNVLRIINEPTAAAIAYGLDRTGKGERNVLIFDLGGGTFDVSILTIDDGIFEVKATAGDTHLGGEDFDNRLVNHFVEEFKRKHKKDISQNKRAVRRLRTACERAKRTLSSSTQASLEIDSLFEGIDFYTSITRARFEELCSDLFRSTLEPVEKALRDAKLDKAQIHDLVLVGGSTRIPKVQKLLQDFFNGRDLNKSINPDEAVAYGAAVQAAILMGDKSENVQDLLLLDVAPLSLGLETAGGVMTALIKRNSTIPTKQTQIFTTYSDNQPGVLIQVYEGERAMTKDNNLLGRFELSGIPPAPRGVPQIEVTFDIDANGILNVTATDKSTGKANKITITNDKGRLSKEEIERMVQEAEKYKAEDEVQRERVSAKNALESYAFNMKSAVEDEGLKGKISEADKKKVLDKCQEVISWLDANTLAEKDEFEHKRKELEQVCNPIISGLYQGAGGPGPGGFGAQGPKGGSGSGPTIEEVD

[29] = target: Histone acetyltransferase type B catalytic subunit (Homo sapiens) (UniProt O14929); assay: anti-FLAG co-IP LC-MS, exp 4, +Dox +IFNG
Histone acetyltransferase type B catalytic subunit (Homo sapiens), sequence (O14929 2-419 limits assumed): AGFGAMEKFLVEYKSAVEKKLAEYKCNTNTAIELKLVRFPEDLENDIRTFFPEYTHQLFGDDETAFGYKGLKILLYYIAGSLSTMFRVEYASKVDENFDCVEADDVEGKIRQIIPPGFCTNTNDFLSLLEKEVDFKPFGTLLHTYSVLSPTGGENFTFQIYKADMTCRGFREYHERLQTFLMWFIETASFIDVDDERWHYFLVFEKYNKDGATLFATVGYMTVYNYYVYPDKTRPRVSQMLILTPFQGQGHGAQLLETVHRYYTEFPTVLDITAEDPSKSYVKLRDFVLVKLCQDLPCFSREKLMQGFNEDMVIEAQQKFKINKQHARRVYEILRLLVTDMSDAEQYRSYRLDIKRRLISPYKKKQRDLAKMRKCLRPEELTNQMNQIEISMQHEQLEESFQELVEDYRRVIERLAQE

Desmin (Homo sapiens) = Desmin (Homo sapiens) (UniProt P17661); assay: anti-FLAG co-IP LC-MS, exp 4, +Dox +IFNG
[30] = target: Elongation factor 1-alpha 1 (Homo sapiens) (UniProt P68104); assay: anti-FLAG co-IP LC-MS, exp 4, +Dox +IFNG
[31] = target: Actin-related protein 3 (Homo sapiens) (UniProt P61158); assay: anti-FLAG co-IP LC-MS, exp 3, +Dox
Myosin-9 (Homo sapiens) = Myosin-9 (Homo sapiens) (UniProt P35579); assay: anti-FLAG co-IP LC-MS, exp 3, +Dox

i3XFLAG-NLS-CTDaa154-424
PSMs [1]: 6 PSMs
PSMs [2]: 11 PSMs
PSMs [3]: 3 PSMs
PSMs [4]: 36 PSMs
PSMs (Vimentin (Homo sapiens)): 55 PSMs
PSMs [5]: 3 PSMs
PSMs [6]: 3 PSMs
PSMs [7]: 2 PSMs
PSMs [8]: 3 PSMs
PSMs [9]: 2 PSMs
PSMs [10]: 6 PSMs
PSMs [11]: 62 PSMs
PSMs [12]: 2 PSMs
PSMs [13]: 7 PSMs
PSMs [14]: 2 PSMs
PSMs [15]: 2 PSMs
PSMs [16]: 5 PSMs
PSMs [17]: 34 PSMs
PSMs [18]: 100 PSMs
PSMs (Nestin (Homo sapiens)): 2 PSMs
PSMs [19]: 5 PSMs
PSMs (Filamin-C (Homo sapiens)): 12 PSMs
PSMs [20]: 11 PSMs
PSMs [21]: 99 PSMs
PSMs [22]: 1 PSMs
PSMs [23]: 3 PSMs
PSMs [24]: 6 PSMs
PSMs (Plectin (Homo sapiens)): 7 PSMs
PSMs [25]: 44 PSMs
PSMs [26]: 3 PSMs
PSMs [27]: 2 PSMs
PSMs [28]: 29 PSMs
PSMs [29]: 9 PSMs
PSMs (Desmin (Homo sapiens)): 12 PSMs
PSMs [30]: 9 PSMs
PSMs [31]: 5 PSMs
PSMs (Myosin-9 (Homo sapiens)): 122 PSMs
